Measurements from paper PMC4809669 (Biochemistry, 2016).

Target: the molecule itself
Test: SEC

B1: hASRGL1-C202A (enzyme, human, UniProt Q7L266 1-308, looked up)
chain: MNPIVVVHGGGAGPISKDRKERVHQGMVRAATVGYGILREGGSAVDAVEGAVVALEDDPEFNAGCGSVLNTNGEVEMDASIMDGKDLSAGAVSAVQCIANPIKLARLVMEKTPHCFLTDQGAAQFAAAMGVPEIPGEKLVTERNKKRLEKEKHEKGAQKTDCQKNLGTVGAVALDCKGNVAYATSTGGIVNKMVGRVGDSPALGAGGYADNDIGAVSTTGHGESILKVNLARLTLFHIEQGKTVEEAADLSLGYMKSRVKGLGGLIVVSKTGDWVAKWTSTSMPWAAAKDGKLHFGIDPDDTTITDLP
stoichiometry N: 2

B2: hASRGL1-C202S (enzyme, human, UniProt Q7L266 1-308, looked up)
chain: MNPIVVVHGGGAGPISKDRKERVHQGMVRAATVGYGILREGGSAVDAVEGAVVALEDDPEFNAGCGSVLNTNGEVEMDASIMDGKDLSAGAVSAVQCIANPIKLARLVMEKTPHCFLTDQGAAQFAAAMGVPEIPGEKLVTERNKKRLEKEKHEKGAQKTDCQKNLGTVGAVALDCKGNVAYATSTGGIVNKMVGRVGDSPSLGAGGYADNDIGAVSTTGHGESILKVNLARLTLFHIEQGKTVEEAADLSLGYMKSRVKGLGGLIVVSKTGDWVAKWTSTSMPWAAAKDGKLHFGIDPDDTTITDLP
stoichiometry N: 2
